# Experiment: soluble on expression in E. coli; label from the status in PepcDB or PDB records
row,Sequence,soluble on expression in E. coli
1,GSSAVNQENERLMEEYERLASELLEWIRRTIPWLENRTPEKTMQAMQKKLEDFRDYRRKHKPPKVQEKCQLEINFNTLQTKLRISNRPAFMPSEGKMVSDIAGAWQRLEQAEKGYEEWLLNEIRRLERLEHLAEKFRQKASTHETWAYGKEQILLQKDYESASLTEVRALLRKHEAFESDLAAHQDRVEQIAAIAQELNELDYHDAVNVNDRCQKICDQWDRLGTLTQKRREALERMEKLLETIDQLHLEFAKRAAPFNNWMEGAMEDLQDMFIVHSIEEIQSLITAHEQFKATLPEADGERQSIMAIQNEVEKVIQSYNIRISSSNPYSTVTMDELRTKWDKVKQLVPIRDQSLQEELARQHANERLRRQFAAQANAIGPWIQNKMEEIARSSIQITGALEDQMNQLKQYEHNIINYKNNIDKLEGDHQLIQEALVFDNKHTNYTMEHIRVGWELLLTTIARTINEVETQILTRD,soluble
2,MKWHGLPACDSNPNSTTEFCRTRRPTKTMNSPATQTATPTNVDIASIVEQVLRRLRDQTNTNGSTSKPATHAPSAHVLSDKVISVDVIRGIPSGVTQVQLSGGIVTPAARDEMRARGISLAGAESTSAAAIKPASNSGKRFIQLHTDTSSKSIRDALARQLALRGVDHCPRAHRSVIVTKHPATALLGRIQSGARAVLITRLEDIPRFASEIDADTFVLDMQRFNLVALVNAATSIAQLSTSSTSQEAT,not soluble
3,MGSDKIHHHHHHMTLWQPDPALIRRPAYQSLADQFARAIHDGRLANGARLPTHRRLADDLNLSVQTVSRAYEELIRRGLISGEIGRGSFVQTQRREPEPPYLPERLGEVIDLSILKPVCEPMHLERLKQALGWLAENLPSSSALSFRPNMVFPRHRAVAVEWLKLCGLDISAQNISLTNGATAGMTVALMSVAPPGSTVATEAIGHHTLVPLARYLGFNLQGLPIDDNGLIPEALDEACRLSDIRAVFVQPSVINPTATLMDAQRREQIAAVARKHDIAIIENDVLGPLVEDRPPPVAAFAPERTLYVTSFTKITVPGLRIGYLAAPDRYVAAVANRHLVSNWMATPLVAEIATKWVTDGTAMELVLWQRAALRRRQDIAAEVLARIDYRARRDGLHIWLQLPDDRAEEGFVAQARLQGVAIAPGTSFRISDAPWHPAVRISLGSTTEGELRAGLGVVTKLLLGDPEHLLLAI,not soluble
4,MGSDKIHHHHHHMRKAERLNDMMLFLNDKNSFQLSDIMAKYGVSRSTAIRDIQSLEEIGMPIYSERGRNGHYRVLRNRLLSPIVFNIDEVFALYFSMLTLKAYETTPFHLSVEKLKTKFERCLSAEKIEMLRKIEEVFSLGYIKHNNQCEFLDVILQFTMEEKVCQINYDNNGTEKTYIVQFYNISSAYGQWYVTSYNFETKRMQVFRCDKILALKENDTFEAKKMEELKGVADSFNKKADVTTFEVEIASNGVDLFFKENYPSMKLRQQEGRNCIHGFYHKGEERFIINYLLGYGEKIIAIQPDSLRDMLLNELDTIKKHMQNLSS,not soluble
5,GFIELHAHLAFQKVPADIVLRHGVTTLRDVGGPVHPPYGGEGSLRVLTSGRIITAPHGYPIVTMGARDLAIPVASEAEAREAVRHLVGEGAVIIKIALEPGSEAGAPWSSHHDHAHHDAAHTASAVTHHHAHAASHDQSAWPMLPEPIVKAVVDEAHRHQRKVSAHVAEPSGVQVALNAGVDEWAHMPCNPIPEPLLKQARAQNVTIIGTLDTLSKCSGIAHNTMVWTELGGELLYGTEIAHPDIPWGIDAQELMYLMHLGKMKLLDALGAATAKAGRYLGIPMLGTIQPGAPADLIAIRGNPEQQLKRLEYPDLVISGGHIVVNHFSSLP,not soluble
6,MGSDKIHHHHHHAQFKIGGKKINVGKVVQAGSDAAKAITLSDSDIAAMSKEYMQWMDTHNPLTAADSEYGKRLEKLTGHIKEVDGLKVNFGVYEVVDVNAFACGDGSVRICAGLMDIMTDDEVMAVVGHEIGHVIHTDSKDAMKSAYLRSAVKNAAGAASSTVSKLTDSELGAMAEALAGAQYSQKQESEADDYGFEFSIKHNIDPYAMYNALNKLLELSAEAPKESKFQKMFSSHPDTAKRVARAKEKADNYTKNK,not soluble
7,AHHHHHHGSKKITISSLLLLLLISTNLNLAYDSQESGIKNIIILIGDGMGMSHVQITKLVYGHLNMEEFPIIGFELTESLSGEVTDSAAAGTAIATGVKTYNRMISVTNITGKVTNLTTLLEIAQVLGKSTGLVTTTRITHATPAVFASHVPDRDMEEEIARQLIAHRVNVLLGGGRKKFDENTLKMAKEQGYNIVFTKEELEKAEGEFILGLFADSHIPYVLDRKPEDVGLLEMTKKAISILEKNPNGFFLMIEGGRIDHAAHENDIASVVAETKEFDDVVGYVLEYAKKRGDTLVIVLADHETGGLGLGLTYGDAINEDVIRNINASVSKIASEIRATNDIKRVIKKYTGFELTEDEINYIEEAINLADEYALQNAIADIINKRVGVGFVSHKHTGAPVSLLAYGPGAENFAGFLHHVDTAKLIAKLMLFGKKDIPVTILGISGVKGDITGDFKVDEQDAYVTLMMLLGERVDTELERKVDMNNNGIIELGDVLLILQES,soluble
8,SAAPVDLELKKAFTELQAKVIDTQQKVKLADIQIEQLNRTKKHAHLTDTEIMTLVDETNMYEGVGRMFILQSKEAIHSQLLEKQKIAEEKIKELEQKKSYLERSVKEAEDNIREMLMARRAQ,soluble
9,MGHHHHHHSHMKNLINWFEIPVTDMARAIAFYEQVMQISLRRETMDGADLAVFPYAEPGPGGALIKQDDVAPVAQGVVIYLHTADLLASIERVVLAGGKCVLEPMVPGDDIGTIALFIDSEGNRIGLHQPA,soluble
10,MAGNFDSEERSSWYWGRLSRQEAVALLQGQRHGVFLVRDSSTSPGDYVLSVSENSRVSHYIINSSGPRPPVPPSPAQPPPGVSPSRLRIGDQEFDSLPALLEFYKIHYLDTTTLIEPVSRSRQGSGVILRQEEAEYVRALFDFNGNDEEDLPFKKGDILRIRDKPEEQWWNAEDSEGKRGMIPVPYVEKYRPASASVSALIGGNQEGSHPQPLGGPEPGPYAQPSVNTPLPNLQNGPIYARVIQKRVPNAYDKTALALEVGELVKVTKINVSGQWEGECNGKRGHFPFTHVRLLDQQNPEEDFS,soluble
11,MSLSDRDSTLSRLKSAGENGDVEAQYALGLMYLYGEILDVDYQQAKIWYEKAADQNDPRAQAKLGVMYANGLGVNQDYQQSKLWYEKAAAQNDVDAQFLLGEMYDDGLGVSQDYQHAKMWYEKAAAQNDERAQVNLAVLYAKGNGVEQDYRQAKSWYEKAAAQNSPDAQFALGILYANANGVEQDYQQAKDWYEKAAEQNFANAQFNLGMLYYKGEGVKQNFRQAREWFEKAASQNQPNAQYNLGQIYYYGQGVTQSYRQAKDWFEKAAEKGHVDAQYNLGVIYENGEGVSQNYQQAKAWYEKAASQNDAQAQFELGVMNELGQGESIDLKQARHYYERSCNNGLKKGCERLKELLYKEGHHHHHH,soluble
12,SMIPDFMSFTSHIDELYESAKKQSGGKVADYIPQLAKFSPDLWGVSVCTVDGQRHSTGDTKVPFCLQSCVKPLKYAIAVNDLGTEYVHRYVGKEPSGLRFNKLFLNEDDKPHNPMVNAGAIVVTSLIKQGVNNAEKFDYVMQFLNKMAGNEYVGFSNATFQSERESGDRNFAIGYYLKEKKCFPEGTDMVGILDFYFQLCSIEVTCESASVMAATLANGGFCPITGERVLSPEAVRNTLSLMHSCGMYDFSGQFAFHVGLPAKSGVAGGILLVVPNVMGMMCWSPPLDKMGNSVKGIHFCHDLVSLCNFHNYDNL,soluble
13,MKTSETTRPTLSSLPVGKRAEEGTPHNLFTVIGLDDSPSPYLSPSVKALIDQGCVFSGGVRHHDIVAPLLPAGAKWIDITVPLDQVFARYAGHPHIIVFASGDPIFFGFANTIRRRLPDAEIRLYPSFNSLQTLAHRLVMPYDDMRTISLTGRPWHGFDRALIERTPKMGILTDREHTPATIASRMLDYGYNDYTMYIGEHLGHPTKELIRRMTLEEAAAETFEYPNCLILTTGDGLQSVNGGILSPRFFGIPDEAFELLDGRARMITKAPIRLLTLSALELNRRTSFWDIGFCTGSVSIEARLQFPHLHVTSFEIRPEGKRLMEINSRRFGTPGITTVIGDFLETDTAIYPCPDAVFIGGHGGRLKEIISRVRHKLLPGARIVFNSVSEESKTHFIEAANESGLCFLGGTRVAINEYNPIEILVASAPDSPYL,not soluble
14,MGSDKIHHHHHHMMEEYLGVFVDETKEYLQNLNDTLLELEKNPEDMELINEAFRALHTLKGMAGTMGFSSMAKLCHTLENILDKARNSEIKITSDLLDKIFAGVDMITRMVDKIVSEGSDDIGENIDVFSDTIKSFASSGKEKPSEIKNETETKGEEEHKGESTSNEEVVVLPEEVAHVLQEARNKGFKTFYIKVILKEGTQLKSARIYLVFHKLEELKCEVVRTIPSVEEIEEEKFENEVELFVISPVDLEKLSEALSSIADIERVIIKEVTAVTEESGAEKRTEKEEKTEKTEEKAERKKVISQTVRVDIEKLDNLMDLMGELVIARSRILETLKKYNIKELDESLSHLSRITLDLQNVVMKIRMVPISFVFNRFPRMVRDLAKKMNKEVNFIMRGEDTELDRTFVEEIGEPLLHLLRNAIDHGIEPKEERIAKGKPPIGTLILSARHEGNNVVIEVEDDGRGIDKEKIIRKAIEKGLIDESKAATLSDQEILNFLFVPGFSTKEKVSEVSGRGVGMDVVKNVVESLNGSISIESEKDKGTKVTIRLPLTLAIIQALLVKVNNLVYAIPIANIDTILSISKEDIQRVQDRDVIVIRGEVIPVYRLWEVLQIEHKEELEEMEAVIVRVGNRKYGIVVDDLLGQDDIVIKSLGKVFSEVKEFSGAAILGDGSIALIINVSGIV,not soluble
15,MSALSTLKVTFIVSPPSFPCFHTPGPRRKAAPFRFTGQSAYPLWYHGGMAEAFCPVYAALNLLQEKWTLHIIRALLEGPKGFNELSRAVGGVNPATLSQRLDQLVRLGVVEKRVESYMPPRTRYSLTPAGEELEEVVQAIERWARRHLKAPDPAR,soluble
16,MGSDKIHHHHHHMKAGISLSLSLALSCSAVAQGQKISVPPVFNIFELVIRQDKNNAYDSLAEKNITASVTGEPGTLAMYSAKKKTNPSVTYMYEIYADSDAYDKHLNSTSYKEFLRNSPDILETSQTRRIDVIPQFLADKKIVQNDSTINNFVIVDVKPELGQAFRHVVLPEMAQSIEREEGVLAMYAAIDKANRNRWYFYEIYASENAYQAHRLTPHFKAYINQTAEMTTYKEAIDIKPGLLMNKGGMRYENE,not soluble
17,MSRLPTTPCEQLKLDNQLCFALYSTSLQMTKVYKPLLQALGLTYPQYIAMLVLWERDGLTVGEISARMLTDPGSLTPLLKRLEGEGLITRTRSSEDERVVLLRLTDKGRALQRQAESIPACILESTGLDLPQLVALKDELLALRGNLQAPD,not soluble
18,MGSDKIHHHHHHMKEIRIILMGTGNVGLNVLRIIDASNRRRSAFSIKVVGVSDSRSYASGRNLDISSIISNKEKTGRISDRAFSGPEDLMGEAADLLVDCTPASRDGVREYSLYRMAFESGMNVVTANKSGLANKWHDIMDSANQNSKYIRYEATVAGGVPLFSVLDYSILPSKVKRFRGIVSSTINYVIRNMANGRSLRDVVDDAIKKGIAESNPQDDLNGLDAARKSVILVNHIFGTEYTLNDVEYSGVDERSYNANDRLVTEVYVDDRRPVAVSRIISLNKDDFLMSIGMDGLGYQIETDSNGTVNVSDIYDGPYETAGAVVNDILLLSKVQK,not soluble
19,MSATVKPYQEMESGKREQVELMFNNISPKYDLLNRVLSLGIDKIWRKQALNLLKQDKPAHILDVATGTADLAIEAATRLKPTSVVGIDIAEDMLQIGRGKIAKKNLDKIIRLEKGDSEKINFPDNTFDAVIVSFGVRNFEHLEIGLAEIHRVLKPAGSIMVLEFSKPQNAPFKQVYQFYFKNILPTVGKLISKDSAAYTYLPDSVNAFPDGKAFCSILEKTGFTIKHYKPYTFGVCTAYVGKKLEHHHHHH,not soluble

# From the DeepSol protein solubility set
